The source of these data is paper PMC8429977, “Phosphorylation of slit diaphragm proteins NEPHRIN and NEPH1 upon binding of HGF promotes podocyte repair” (The Journal of Biological Chemistry, 2021).

This assay concerns the target T1, purified human recombinant HGF (human, UniProt P14210 32-728).
T1 construct: hepatocyte growth factor, human, recombinant, purified; also called hepatocyte growth factor; recombinant human active HGF; source: bought: Sigma
In words: far-Western, overlay or dot blot; 300 ng peptide spotted on nitrocellulose, blocked with fat-free milk, incubated with 1 μg recombinant purified HGF in 5% BSA in PBS at 4 °C, detected with anti-HGF antibody. As to conditions: both partners purified.

T1 sequence (P14210 32-728): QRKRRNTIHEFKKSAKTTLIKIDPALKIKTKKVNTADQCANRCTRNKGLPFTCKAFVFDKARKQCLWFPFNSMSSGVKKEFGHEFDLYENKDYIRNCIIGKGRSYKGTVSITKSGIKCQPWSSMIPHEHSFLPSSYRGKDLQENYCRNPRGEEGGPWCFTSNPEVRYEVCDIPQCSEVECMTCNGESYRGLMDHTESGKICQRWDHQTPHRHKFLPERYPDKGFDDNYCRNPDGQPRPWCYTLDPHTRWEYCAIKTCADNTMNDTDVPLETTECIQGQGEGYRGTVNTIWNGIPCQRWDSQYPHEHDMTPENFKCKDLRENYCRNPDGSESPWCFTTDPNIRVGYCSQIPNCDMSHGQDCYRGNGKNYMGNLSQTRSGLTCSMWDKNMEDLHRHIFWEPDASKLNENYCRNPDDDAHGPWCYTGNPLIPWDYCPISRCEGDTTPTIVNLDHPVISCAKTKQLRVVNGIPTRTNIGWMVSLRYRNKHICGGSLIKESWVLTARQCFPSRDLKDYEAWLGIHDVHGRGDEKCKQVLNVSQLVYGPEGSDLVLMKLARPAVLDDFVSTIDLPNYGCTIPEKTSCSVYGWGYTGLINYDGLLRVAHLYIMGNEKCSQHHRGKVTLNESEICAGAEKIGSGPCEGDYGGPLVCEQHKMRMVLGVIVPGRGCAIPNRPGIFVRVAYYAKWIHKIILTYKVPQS

B1: NEPHRIN Peptide-1 (peptide)
peptide: PDITILLSGQTISDISANVNEGSQQKL
notes: also called NEPHRIN-P1; NEPHRIN P1; source: synthetic peptide (Fmoc solid phase, HPLC purified)
As for B1, the binding result is “binds”.

B2: NEPH1 Peptide-1 (peptide)
peptide: QEGERVVFTCQATANPEIL
notes: also called NEPH-P1; NEPH1-P1; source: synthetic peptide (Fmoc solid phase, HPLC purified)
Take B2: the binding result is “binds”.
